Source: article PMC9501438

What was measured:
[1] = target: Arkadia RING 68 aa (human) (UniProt Q6ZNA4); experiment: ITC; Microcal PEAQ ITC, 25 °C; 75-200 uM Arkadia polypeptide in the cell, 0.75-2 mM UBCH5B from the syringe in 2 uL injections; single site-binding model
[2] = target: Arkadia 119 aa polypeptide (human) (UniProt Q6ZNA4); experiment: as above
Chain of Arkadia 119 aa polypeptide (human) (Q6ZNA4 876-994): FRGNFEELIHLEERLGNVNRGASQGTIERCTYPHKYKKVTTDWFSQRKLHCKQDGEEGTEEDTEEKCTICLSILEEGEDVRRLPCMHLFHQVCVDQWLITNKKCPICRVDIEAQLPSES

Chain of UBCH5B (P62837 whole entry): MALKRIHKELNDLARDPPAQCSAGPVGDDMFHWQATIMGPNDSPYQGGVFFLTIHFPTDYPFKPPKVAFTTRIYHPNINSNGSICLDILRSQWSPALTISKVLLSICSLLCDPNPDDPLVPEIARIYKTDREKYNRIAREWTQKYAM
Chain of Arkadia RING 68 aa (human) (Q6ZNA4 927-994): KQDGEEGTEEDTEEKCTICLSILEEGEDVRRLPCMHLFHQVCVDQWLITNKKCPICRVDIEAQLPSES

Substance “UBCH5B (from UniProt P62837 1-147) (enzyme)” has a dH [1] of 3.1 kcal/mol, a stoichiometry N [1] of 1 and a dH [2] of -4.7 kcal/mol. The stoichiometry N [2] was 0.6.
